Patent US20260098059A1 (ENDOMET BIOSCIENCES, published 2026)
Where “and” joins values, the source holds several entries; their conditions need not be identical. Equal entries are not always repeated. Bridges are numbered along the chain shown (N, C = ends). Where no end group is shown, it is not given here. [ ]: non-standard residue; d: D form. Chg = N[C@H](C(=O)O)C1CCCCC1; NMeA = CN[C@@H](C)C(=O)O

T1: β-catenin (UniProt P35222 134-665, limits assumed, biotinylated in the SPR and plate assays)
T1 construct: also called beta catenin; biotinylated β-catenin
T1 sequence (looked up): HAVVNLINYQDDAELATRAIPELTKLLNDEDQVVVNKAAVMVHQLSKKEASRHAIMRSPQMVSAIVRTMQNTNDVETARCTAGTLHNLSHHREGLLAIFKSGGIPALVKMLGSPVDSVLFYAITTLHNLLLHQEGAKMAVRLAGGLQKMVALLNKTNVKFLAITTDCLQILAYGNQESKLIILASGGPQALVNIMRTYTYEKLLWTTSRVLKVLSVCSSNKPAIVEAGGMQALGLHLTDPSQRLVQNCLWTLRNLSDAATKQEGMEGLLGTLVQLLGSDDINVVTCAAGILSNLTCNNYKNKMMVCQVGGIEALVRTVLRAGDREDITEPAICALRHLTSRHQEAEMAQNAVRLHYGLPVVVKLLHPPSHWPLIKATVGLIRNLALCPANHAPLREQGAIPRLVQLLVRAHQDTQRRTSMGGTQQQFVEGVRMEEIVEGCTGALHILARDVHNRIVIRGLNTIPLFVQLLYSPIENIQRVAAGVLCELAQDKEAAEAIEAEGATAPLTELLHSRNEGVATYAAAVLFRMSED


Columns and labels:
β-catenin [1] = target: T1, β-catenin; assay: competitive FP
Outline: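 Competitive fluorescence polarization with inhibitor peptide serially diluted from 10 nM to 30 uM; polarization read at 470 nm excitation, 520 nm emission. Experiments performed three times.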

β-catenin [2] = target: T1, β-catenin; assay: cell-based or functional assay

Kd (β-catenin [1])	Proliferation IC50, Endo cells (β-catenin [2])	Proliferation IC50, Wnt dependent cells (β-catenin [2])	Wnt Reporter EC50 (β-catenin [2])	Binder
> 0.4 µM and ≤ 1 µM	26.3 µM	5 µM		KWGLIXAWD (HELM PEPTIDE1{[ac].K.W.[O=C([C@@H](N[*:1])C1CCCCC1)[*:2]].L.I.[Abu].A.W.D}$PEPTIDE1,PEPTIDE1,2:R3-10:R3$$$V2.0; SMILES CC[C@@H]1NC(=O)[C@H]([C@@H](C)CC)NC(=O)[C@H](CC(C)C)NC(=O)[C@H](C2CCCCC2)NC(=O)[C@H](Cc2c[nH]c3ccccc23)NC(=O)[C@@H](NC(C)=O)CCCCNC(=O)C[C@@H](C(=O)O)NC(=O)[C@H](Cc2c[nH]c3ccccc23)NC(=O)[C@H](C)NC1=O) [SEQ ID NO: 262]
≤ 0.4 µM			> 30 µM	WWESILDEHVQRVWG (HELM PEPTIDE1{[meW].[meW].E.S.I.L.D.E.H.V.Q.R.V.W.G.[am]}$$$$V2.0; SMILES CC[C@H](C)[C@H](NC(=O)[C@H](CO)NC(=O)[C@H](CCC(=O)O)NC(=O)[C@H](Cc1c[nH]c2ccccc12)N(C)C(=O)[C@H](Cc1c[nH]c2ccccc12)NC)C(=O)N[C@@H](CC(C)C)C(=O)N[C@@H](CC(=O)O)C(=O)N[C@@H](CCC(=O)O)C(=O)N[C@@H](Cc1c[nH]cn1)C(=O)N[C@H](C(=O)N[C@@H](CCC(N)=O)C(=O)N[C@@H](CCCNC(=N)N)C(=O)N[C@H](C(=O)N[C@@H](Cc1c[nH]c2ccccc12)C(=O)NCC(N)=O)C(C)C)C(C)C) [SEQ ID NO: 37]
≤ 0.4 µM			> 30 µM	WAQKILDEHGQRVWG (HELM PEPTIDE1{[ac].W.[meA].Q.K.I.L.D.E.H.[O=C([C@@H](N[*:1])C1CCCCC1)[*:2]].Q.R.V.W.G.[am]}$PEPTIDE1,PEPTIDE1,5:R3-9:R3$$$V2.0; SMILES CC[C@H](C)[C@@H]1NC(=O)[C@@H](NC(=O)[C@H](CCC(N)=O)NC(=O)[C@H](C)N(C)C(=O)[C@H](Cc2c[nH]c3ccccc23)NC(C)=O)CCCCNC(=O)CC[C@@H](C(=O)N[C@@H](Cc2c[nH]cn2)C(=O)N[C@H](C(=O)N[C@@H](CCC(N)=O)C(=O)N[C@@H](CCCNC(=N)N)C(=O)N[C@H](C(=O)N[C@@H](Cc2c[nH]c3ccccc23)C(=O)NCC(N)=O)C(C)C)C2CCCCC2)NC(=O)[C@H](CC(=O)O)NC(=O)[C@H](CC(C)C)NC1=O) [SEQ ID NO: 404]
≤ 0.4 µM			> 15 µM and ≤ 22.5 µM	WAQKILDDHGQRVWG (HELM PEPTIDE1{[ac].W.[meA].Q.K.I.L.D.D.H.[O=C([C@@H](N[*:1])C1CCCCC1)[*:2]].Q.R.V.W.G.[am]}$PEPTIDE1,PEPTIDE1,5:R3-9:R3$$$V2.0; SMILES CC[C@H](C)[C@@H]1NC(=O)[C@@H](NC(=O)[C@H](CCC(N)=O)NC(=O)[C@H](C)N(C)C(=O)[C@H](Cc2c[nH]c3ccccc23)NC(C)=O)CCCCNC(=O)C[C@@H](C(=O)N[C@@H](Cc2c[nH]cn2)C(=O)N[C@H](C(=O)N[C@@H](CCC(N)=O)C(=O)N[C@@H](CCCNC(=N)N)C(=O)N[C@H](C(=O)N[C@@H](Cc2c[nH]c3ccccc23)C(=O)NCC(N)=O)C(C)C)C2CCCCC2)NC(=O)[C@H](CC(=O)O)NC(=O)[C@H](CC(C)C)NC1=O) [SEQ ID NO: 430]
≤ 0.4 µM			> 30 µM	WAQKILNEHGQRVWG (HELM PEPTIDE1{[ac].W.[meA].Q.K.I.L.N.E.H.[O=C([C@@H](N[*:1])C1CCCCC1)[*:2]].Q.R.V.W.G.[am]}$PEPTIDE1,PEPTIDE1,5:R3-9:R3$$$V2.0; SMILES CC[C@H](C)[C@@H]1NC(=O)[C@@H](NC(=O)[C@H](CCC(N)=O)NC(=O)[C@H](C)N(C)C(=O)[C@H](Cc2c[nH]c3ccccc23)NC(C)=O)CCCCNC(=O)CC[C@@H](C(=O)N[C@@H](Cc2c[nH]cn2)C(=O)N[C@H](C(=O)N[C@@H](CCC(N)=O)C(=O)N[C@@H](CCCNC(=N)N)C(=O)N[C@H](C(=O)N[C@@H](Cc2c[nH]c3ccccc23)C(=O)NCC(N)=O)C(C)C)C2CCCCC2)NC(=O)[C@H](CC(N)=O)NC(=O)[C@H](CC(C)C)NC1=O) [SEQ ID NO: 435]
> 0.4 µM and ≤ 1 µM			> 30 µM	WAQKILDEHVQRVWG (HELM PEPTIDE1{W.[meA].Q.K.I.L.D.E.H.V.Q.R.V.W.G.[am]}$PEPTIDE1,PEPTIDE1,4:R3-8:R3$$$V2.0; SMILES CC[C@H](C)[C@@H]1NC(=O)[C@@H](NC(=O)[C@H](CCC(N)=O)NC(=O)[C@H](C)N(C)C(=O)[C@@H](N)Cc2c[nH]c3ccccc23)CCCCNC(=O)CC[C@@H](C(=O)N[C@@H](Cc2c[nH]cn2)C(=O)N[C@H](C(=O)N[C@@H](CCC(N)=O)C(=O)N[C@@H](CCCNC(=N)N)C(=O)N[C@H](C(=O)N[C@@H](Cc2c[nH]c3ccccc23)C(=O)NCC(N)=O)C(C)C)C(C)C)NC(=O)[C@H](CC(=O)O)NC(=O)[C@H](CC(C)C)NC1=O) [SEQ ID NO: 401]
≤ 0.4 µM			≤ 7.5 µM	W[NMeA]QKILDDH[Chg]QRVWG-NH2 (lactam 4-8; not fully specified (N-terminus); printed as H17C8C(O)NH-W-NMeA-QK*ILDD*H-Chg-QRVWG-NH2) [SEQ ID NO: 431]
≤ 0.4 µM	0.8 µM	14.9 µM	> 7.5 µM and ≤ 15 µM	W[NMeA]QKILDDH[Chg]QRVWG-NH2 (lactam 4-8; not fully specified (N-terminus); printed as H23C11C(O)NH-W-NMeA-QK*ILDD*H-Chg-QRVWG-NH2) [SEQ ID NO: 432]
≤ 0.4 µM			> 30 µM	WAQKILDEHGQRVWR (HELM PEPTIDE1{[ac].W.[meA].Q.K.I.L.D.E.H.[O=C([C@@H](N[*:1])C1CCCCC1)[*:2]].Q.R.V.W.R.[am]}$PEPTIDE1,PEPTIDE1,5:R3-9:R3$$$V2.0; SMILES CC[C@H](C)[C@@H]1NC(=O)[C@@H](NC(=O)[C@H](CCC(N)=O)NC(=O)[C@H](C)N(C)C(=O)[C@H](Cc2c[nH]c3ccccc23)NC(C)=O)CCCCNC(=O)CC[C@@H](C(=O)N[C@@H](Cc2c[nH]cn2)C(=O)N[C@H](C(=O)N[C@@H](CCC(N)=O)C(=O)N[C@@H](CCCNC(=N)N)C(=O)N[C@H](C(=O)N[C@@H](Cc2c[nH]c3ccccc23)C(=O)N[C@@H](CCCNC(=N)N)C(N)=O)C(C)C)C2CCCCC2)NC(=O)[C@H](CC(=O)O)NC(=O)[C@H](CC(C)C)NC1=O) [SEQ ID NO: 449]
≤ 0.4 µM			> 30 µM	WAQKILDEHVQRVWG (HELM PEPTIDE1{[ac].W.[meA].Q.K.I.L.D.E.H.V.Q.R.V.W.G.[am]}$PEPTIDE1,PEPTIDE1,5:R3-9:R3$$$V2.0; SMILES CC[C@H](C)[C@@H]1NC(=O)[C@@H](NC(=O)[C@H](CCC(N)=O)NC(=O)[C@H](C)N(C)C(=O)[C@H](Cc2c[nH]c3ccccc23)NC(C)=O)CCCCNC(=O)CC[C@@H](C(=O)N[C@@H](Cc2c[nH]cn2)C(=O)N[C@H](C(=O)N[C@@H](CCC(N)=O)C(=O)N[C@@H](CCCNC(=N)N)C(=O)N[C@H](C(=O)N[C@@H](Cc2c[nH]c3ccccc23)C(=O)NCC(N)=O)C(C)C)C(C)C)NC(=O)[C@H](CC(=O)O)NC(=O)[C@H](CC(C)C)NC1=O) [SEQ ID NO: 402]
